Data taken from US7575909B2, “Oxidoreductase from pichia capsulata” (IEP GmbH, priority 2003, dated 2009).

Key:
[1] = Solvent stability of the oxidoreductase; assay type: physicochemical; details: RT
Method: The enzyme stability of the oxidoreductase from P. capsulata was examined in the presence of organic solvents. For this purpose, the oxidoreductase was in each case diluted 1:20 with the indicated solvent mixtures (in case of water-miscible organic solvents) and was incubated at room temperature (20° C. to 24° C.; RT). Subsequently, 10 μl of the enzyme solution were used in the standard test batch. Also in this case, the initial value was equalled to 100% after dilution in the buffer (potassium phosphate buffer (KPP) 100 mM, pH=7.0), and all the other values were set in relation to said initial value.
In case of water-immiscible organic solvents, the dilution likewise took place in a potassium phosphate buffer, the same volume of an organic solvent was added to the batch and the batch was incubated at RT in a thermomixer at 170 rpm. The activity was measured from the aqueous phase.

[2] = Enzyme activity on expression of the oxidoreductase in E. coli; assay type: biochemical, Escherichia coli
Excerpt: Competent Escherichia coli StarBL21 (De3) cells (Invitrogen) were transformed with the expression construct pET21-PC#10 coding for the oxidoreductase according to the invention.
The transformed strain was cultivated in an LB medium (1% tryptone, 0.5% yeast extract, 1% NaCl) with ampicillin (50 ig/ml) until an optical density, measured at 500 nm, of 0.5 was reached. The production of the recombinant oxidoreductase protein was initiated by adding isopropylthiogalactoside (IPTG) at a final concentration of 1 mM. The induction batch was incubated for another 15 h at 25° C. and 220 rpm.
Competent Escherichia coli RB791 cells were transformed with the expression construct pQE30-PC#12 coding for the oxidoreductase according to the invention.
The transformed strain was cultivated in an LB medium (1% tryptone, 0.5% yeast extract, 1% NaCl) with ampicillin (50 ig/ml) until an optical density, measured at 500 nm, of 0.5 was reached. The production of the recombinant oxidoreductase protein was initiated by adding IPTG at a final concentration of 0.1 mM. The induction batch was incubated for another 15 hours at 25° C. and 220 rpm. The enzyme activity achieved amounted to approx. 1000 U/g of wet cell mass.

[3] = Temperature optimum of the oxidoreductase; assay type: biochemical
Method: In order to determine the optimum test temperature, the enzyme activity was measured in the standard measuring batch in a temperature range of 15° C. to 70° C.

[4] = Temperature stability of the oxidoreductase; assay type: physicochemical; details: after 30 min
Method: The temperature stability was determined for the range of 15° C. to 70° C. in a manner analogous to that described under Example 5.2. […] Also in this case, the measured value obtained immediately after diluting the purified oxidoreductase in a potassium phosphate buffer 50 mM pH=7.0 was used as the initial value. Said value was set as a 100% value also in this example.

[5] = pH stability of the recombinant oxidoreductase; assay type: physicochemical; details: pH values above 9.0 and below 5.0
Method: The determination of the activity of the recombinant oxidoreductase was examined by storage in the buffer systems mentioned in Table 3. For this purpose, the various buffers (50 mM) were prepared in a pH range of 4 to 11, and the oxidoreductase produced according to Example 4 was diluted therewith. After 30, 60 and 300 min of incubation, 10 μl were removed from the batch and used in the activity test according to Example 1.
Thereby, the initial value is the measured value which was obtained immediately after diluting (1:20) the enzyme in the potassium phosphate buffer 50 mM pH=7.0. Under the given conditions, said value corresponded to an extinction variation of approx. 0.70/min and was set as a 100% value, and all the following measured values were set in relation to said value.

B1: oxidoreductase from Pichia capsulata: NADH-dependent (S)-specific zinc-dependent carbonyl reductase from Pichia capsulata, amino acid sequence SEQ ID NO: 9, 341 amino acids (protein, listed as Pichia capsulata)
chain: MSALSKTQAGYIFKKGAGHIVKAEVPIPKPTGAQSLLRVKAAGMCHSDLHVIGETLEVPTDGYVLGHEIAGELVEIGDSVNPEVFKVGGRYAVHGLNSCGSCEMCRTGHDNDCTGNESKWYGLGISGGYQQYLLVPNSHHLLPIPDNVSYEVAAATSDAVLTPYHAIKNSGVTPSSKVLMFGLGGLGSNALQILKAFGAYVVAVDVKPASKAIADEFKADEFYTDISQSSWKPASFDYCFDFVSLQVTFDICQKYIKSHGTIFPVGLGSSKLTFDLGNLALREVKIVGNFWGTSQEQIEAMELVSSGRVKPQVHTTELENLPESLEKLEEGKINGRLVMLP
Work on B1 yielded an Activity ([1]; 5% EtOH, 8 h) of 77%, an Activity ([1]; 5% EtOH, 24 h) of 77% and an Activity ([1]; 5% isopropanol, 8 h) of 77%. For the same molecule, the Activity ([1]; 5% isopropanol, 24 h) was 77%, the Activity ([1]; 10% DSMO, 8 h) was 42% and the Activity ([1]; 10% DSMO, 24 h) was 45%. It also gave an Activity ([1]; 10% EtOH, 8 h) of 77%, an Activity ([1]; 10% EtOH, 24 h) of 77% and an Activity ([1]; 10% isopropanol, 8 h) of 72%. It also gave an Activity ([1]; 10% isopropanol, 24 h) of 72%, an Activity ([1]; 20% DSMO, 8 h) of 30% and an Activity ([1]; 20% DSMO, 24 h) of 30%. The Activity ([1]; 20% EtOH, 8 h) was 100%, the Activity ([1]; 20% EtOH, 24 h) was 100% and the Activity ([1]; 20% isopropanol, 8 h) was 46%. It also gave an Activity ([1]; 20% isopropanol, 24 h) of 46%, an Activity ([1]; 30% EtOH, 8 h) of 64% and an Activity ([1]; 30% EtOH, 24 h) of 64%. For the same molecule, the Activity ([1]; 30% isopropanol, 8 h) was 18%, the Activity ([1]; 30% isopropanol, 24 h) was 18% and the Activity ([1]; Buffer KPP 100 mM pH = 7, 1 mM MgCl2, 8 h) was 100%. The Activity ([1]; Buffer KPP 100 mM pH = 7, 1 mM MgCl2, 24 h) was 100%, the Activity ([1]; butyl acetate (same volume, two-phase), 8 h) was 53% and the Activity ([1]; butyl acetate (same volume, two-phase), 24 h) was 28%. The Activity ([1]; chloroform (same volume, two-phase), 8 h) was 51%, the Activity ([1]; chloroform (same volume, two-phase), 24 h) was 0% and the Activity ([1]; cyclohexane (same volume, two-phase), 8 h) was 85%. For the same molecule, the Activity ([1]; cyclohexane (same volume, two-phase), 24 h) was 70%, the Activity ([1]; diethyl ether (same volume, two-phase), 8 h) was 100% and the Activity ([1]; diethyl ether (same volume, two-phase), 24 h) was 100%. It also gave an Activity ([1]; diisopropyl ether (same volume, two-phase), 8 h) of 100%, an Activity ([1]; diisopropyl ether (same volume, two-phase), 24 h) of 100% and an Activity ([1]; ethyl acetate (same volume, two-phase), 8 h) of 2%. The Activity ([1]; ethyl acetate (same volume, two-phase), 24 h) was 0%, the Activity ([1]; heptane (same volume, two-phase), 8 h) was 74% and the Activity ([1]; heptane (same volume, two-phase), 24 h) was 43%. The Activity ([1]; hexane (same volume, two-phase), 8 h) was 60%, the Activity ([1]; hexane (same volume, two-phase), 24 h) was 20% and the Activity ([1]; methyl tert-butyl ether (same volume, two-phase), 8 h) was 100%. For the same molecule, the Activity ([1]; methyl tert-butyl ether (same volume, two-phase), 24 h) was 100%, the enzyme activity achieved ([2]; E. coli RB791, construct pQE30-PC#12, 0.1 mM IPTG) was “approx. 1000 U/g of wet cell mass” and the enzyme activity achieved ([2]; E. coli StarBL21 (De3), construct pET21-PC#10, 1 mM IPTG) was “approx. 6000 U/g of wet cell mass”. The “Activity in U/ml undiluted enzyme” value ([3]; 15 ° C.) was 73 U/ml, the “Activity in U/ml undiluted enzyme” value ([3]; 20 ° C.) was 83 U/ml and the “Activity in U/ml undiluted enzyme” value ([3]; 25 ° C.) was 128 U/ml. The “Activity in U/ml undiluted enzyme” value ([3]; 30 ° C.) was 135 U/ml, the “Activity in U/ml undiluted enzyme” value ([3]; 35 ° C.) was 163 U/ml and the “Activity in U/ml undiluted enzyme” value ([3]; 40 ° C.) was 170 U/ml. The “Activity in U/ml undiluted enzyme” value ([3]; 45 ° C.) was 176 U/ml, the “Activity in U/ml undiluted enzyme” value ([3]; 50 ° C.) was 122 U/ml and the “Activity in U/ml undiluted enzyme” value ([3]; 55 ° C.) was 45 U/ml. For the same molecule, the “Activity in U/ml undiluted enzyme” value ([3]; 60 ° C.) was 0 U/ml, the “Activity in U/ml undiluted enzyme” value ([3]; 65 ° C.) was 0 U/ml and the “Activity in U/ml undiluted enzyme” value ([3]; 70 ° C.) was 0 U/ml. The “optimum temperature (maximum activity)” value ([3]; standard measuring batch, 15° C. to 70° C., listed as recombinant oxidoreductase from P. capsulata) was 45 °C, the “enzyme activity after incubation at 55° C.” value [4] was “can no longer be detected” and the “effect of incubation at extreme pH” value [5] was “immediate deactivation”.
